Data: the supplement of paper PMC10567573

B1: PPEF2 (parent)
chain: FIPSSHNDRDFLTRIFTEDRFAQD
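Note: lentivirally expressed fusions sorted by FACS into six bins by GFP to DsRed ratio, PSI derived from sequencing read proportions per bin multiplied by bin number.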

Variants of: B1
Assay: protein stability index of a GFP-peptide fusion (GPS, HEK-293T) (PSI 1-6); higher = more stable
Conditions: c terminus: a fixed tail appended
In the case of D10I, the protein stability index is reported as 3.22. In the case of D10S, the protein stability index is reported as 2.37. Variant D10V has a protein stability index of 3.75. With D10Q the protein stability index was 2.77. D10C showed a protein stability index of 2.41. With D10P the protein stability index was 2.14. Work on D10R yielded a protein stability index of 2.67. With D10K the protein stability index was 1.89. D10N gave a protein stability index of 2.96. In the case of D10H, the protein stability index is reported as 2.8. Work on D10E yielded a protein stability index of 1.96. D10A gave a protein stability index of 2.69. In the case of D10F, the protein stability index is reported as 2.05. For D10T, the protein stability index was 2.54. In the case of D10G, the protein stability index is reported as 2.46. With S4N the protein stability index was 3.06. With S4C the protein stability index was 1.39. In the case of S4V, the protein stability index is reported as 2.29. S4R showed a protein stability index of 2.14. With S4A the protein stability index was 2.19. For S4T, the protein stability index was 2.57. S4Q showed a protein stability index of 1.89. S4G gave a protein stability index of 2.53. For S4P, the protein stability index was 1.8. S4D showed a protein stability index of 2.11. For S4E, the protein stability index was 1.63. S4Y showed a protein stability index of 1.94. S4K showed a protein stability index of 2.29. For S4W, the protein stability index was 2.19. Variant S4H has a protein stability index of 1.76. In the case of S4L, the protein stability index is reported as 2.02. S4I gave a protein stability index of 3.25. With S4F the protein stability index was 1.99. S4M showed a protein stability index of 1.31. H6W showed a protein stability index of 1.71. Variant H6S has a protein stability index of 1.91. In the case of H6A, the protein stability index is reported as 1.71. Work on H6F yielded a protein stability index of 1.21. H6T showed a protein stability index of 1.38. H6R gave a protein stability index of 1.68. Variant H6Q has a protein stability index of 1.73. With H6D the protein stability index was 2.56. Work on H6E yielded a protein stability index of 1.99. Variant H6G has a protein stability index of 2.07. H6N gave a protein stability index of 1.47. For H6V, the protein stability index was 1.5. H6Y showed a protein stability index of 2.21. For H6K, the protein stability index was 2.23. H6M showed a protein stability index of 1.09. H6I gave a protein stability index of 2.44. H6L gave a protein stability index of 2.23. H6C gave a protein stability index of 1.61. Variant H6P has a protein stability index of 1.49. Work on F1I yielded a protein stability index of 3.54. Work on F1P yielded a protein stability index of 4.18. Variant F1T has a protein stability index of 4.21. In the case of F1Q, the protein stability index is reported as 4.19. Variant F1G has a protein stability index of 4.38. Work on F1Y yielded a protein stability index of 1.63. With F1K the protein stability index was 3.85. With F1E the protein stability index was 4.06. F1D gave a protein stability index of 3.89. With F1M the protein stability index was 4.06. F1A showed a protein stability index of 4.31. In the case of F1V, the protein stability index is reported as 3.88. Variant F1R has a protein stability index of 3.75. Variant F1L has a protein stability index of 3.73. For F1S, the protein stability index was 4.4. F1H showed a protein stability index of 4.22. F1C gave a protein stability index of 4.21. F1W showed a protein stability index of 3.04. For F1N, the protein stability index was 4.05. For R9N, the protein stability index was 1.76. With R9W the protein stability index was 2.3. With R9H the protein stability index was 1.54. With R9T the protein stability index was 1.74. For R9C, the protein stability index was 2.23. For R9L, the protein stability index was 1.81. R9Y gave a protein stability index of 1.89. Work on R9E yielded a protein stability index of 1.89. Variant R9F has a protein stability index of 2.21. R9V showed a protein stability index of 2.2. With R9A the protein stability index was 2.23. With R9D the protein stability index was 2.18. R9Q showed a protein stability index of 1.53. Variant R9K has a protein stability index of 2.48. R9I showed a protein stability index of 1.76. Work on R9M yielded a protein stability index of 2.3. Work on R9G yielded a protein stability index of 2.01. R9P showed a protein stability index of 1.69. With R9S the protein stability index was 1.98. S5R gave a protein stability index of 2.03. In the case of S5K, the protein stability index is reported as 1.67. Work on S5L yielded a protein stability index of 1.41. S5I showed a protein stability index of 2.04. S5M gave a protein stability index of 1.44. In the case of S5E, the protein stability index is reported as 2.4. Variant S5D has a protein stability index of 2.67. With S5Q the protein stability index was 2.55. Variant S5V has a protein stability index of 2.09. With S5G the protein stability index was 1.74. S5Y gave a protein stability index of 1.97. With S5N the protein stability index was 1.92. For S5F, the protein stability index was 1.55. S5H gave a protein stability index of 1.89. In the case of S5W, the protein stability index is reported as 1.58. Work on S5T yielded a protein stability index of 2.17. With S5P the protein stability index was 2.29. Variant S5A has a protein stability index of 2.53. In the case of S5C, the protein stability index is reported as 1.9. Variant D8Y has a protein stability index of 2.55. In the case of D8T, the protein stability index is reported as 2.1. For D8V, the protein stability index was 2.08. Variant D8E has a protein stability index of 1.53. Variant D8R has a protein stability index of 2.25. With D8C the protein stability index was 2.03. Variant D8H has a protein stability index of 2.04. D8N gave a protein stability index of 1.99. In the case of D8A, the protein stability index is reported as 1.89. Variant D8G has a protein stability index of 2.51. For D8M, the protein stability index was 1.93. Work on D8I yielded a protein stability index of 1.68. For D8K, the protein stability index was 1.53. Work on D8S yielded a protein stability index of 1.3. D8Q gave a protein stability index of 2.15. With D8F the protein stability index was 2.38. D8W gave a protein stability index of 2.16. D8L gave a protein stability index of 1.52. D8P gave a protein stability index of 1.89. I2V gave a protein stability index of 2.73. With I2F the protein stability index was 3.32. In the case of I2S, the protein stability index is reported as 2.2. Variant I2L has a protein stability index of 2.96. I2M showed a protein stability index of 2.07. I2E gave a protein stability index of 3.85. In the case of I2N, the protein stability index is reported as 1.96. With I2P the protein stability index was 1.78. With I2D the protein stability index was 4.44. With I2A the protein stability index was 3.29. With I2H the protein stability index was 2.06. I2G gave a protein stability index of 2.62. With I2W the protein stability index was 2.23. For I2K, the protein stability index was 2.92. I2R gave a protein stability index of 3.12. In the case of I2C, the protein stability index is reported as 1.46. With I2Y the protein stability index was 3.38. For I2Q, the protein stability index was 1.5. Variant I2T has a protein stability index of 3.63. P3E showed a protein stability index of 2.82. For P3V, the protein stability index was 1.97. With P3M the protein stability index was 1.34. P3I showed a protein stability index of 2.19. In the case of P3R, the protein stability index is reported as 1.72. Work on P3A yielded a protein stability index of 2.23. Work on P3N yielded a protein stability index of 2.25. In the case of P3T, the protein stability index is reported as 1.99. Variant P3S has a protein stability index of 1.91. In the case of P3D, the protein stability index is reported as 2.75. With P3H the protein stability index was 2.35. P3K showed a protein stability index of 1.25. Variant P3Y has a protein stability index of 1.84. P3Q showed a protein stability index of 1.92. Variant P3G has a protein stability index of 2.1. In the case of P3W, the protein stability index is reported as 2.3. In the case of P3F, the protein stability index is reported as 1.79. In the case of P3L, the protein stability index is reported as 1.92. In the case of P3C, the protein stability index is reported as 1.3.
